B1: FANCE (parent)
chain: AQVLMLGQILELPWKEETFLVLQS

Variants of: B1
Assay: protein stability index of a GFP-peptide fusion (GPS, HEK-293T) (PSI 1-6); higher = more stable
Details: c terminus: a fixed tail appended
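Note: lentivirally expressed fusions sorted by FACS into six bins by GFP to DsRed ratio, PSI derived from sequencing read proportions per bin multiplied by bin number.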

| Variant | protein stability index |
| --- | --- |
| AQVLMLGQINELPWKEETFLVLQS [L10N] | 1.88 |
| AQVLMLGQIFELPWKEETFLVLQS [L10F] | 3.56 |
| AQVLMLGQIYELPWKEETFLVLQS [L10Y] | 4.15 |
| AQVLMLGQITELPWKEETFLVLQS [L10T] | 2.28 |
| AQVLMLGQIKELPWKEETFLVLQS [L10K] | 2.04 |
| AQVLMLGQIMELPWKEETFLVLQS [L10M] | 2.01 |
| AQVLMLGQIEELPWKEETFLVLQS [L10E] | 1.94 |
| AQVLMLGQIDELPWKEETFLVLQS [L10D] | 1.78 |
| AQVLMLGQIPELPWKEETFLVLQS [L10P] | 2.35 |
| AQVLMLGQIGELPWKEETFLVLQS [L10G] | 2.19 |
| AQVLMLGQIRELPWKEETFLVLQS [L10R] | 3.13 |
| AQVLMLGQISELPWKEETFLVLQS [L10S] | 3 |
| AQVLMLGQIHELPWKEETFLVLQS [L10H] | 3.55 |
| AQVLMLGQIAELPWKEETFLVLQS [L10A] | 1.81 |
| AQVLMIGQILELPWKEETFLVLQS [L6I] | 3.28 |
| AQVLMKGQILELPWKEETFLVLQS [L6K] | 3.18 |
| AQVLMTGQILELPWKEETFLVLQS [L6T] | 2.23 |
| AQVLMSGQILELPWKEETFLVLQS [L6S] | 2.7 |
| AQVLMHGQILELPWKEETFLVLQS [L6H] | 3.74 |
| AQVLMYGQILELPWKEETFLVLQS [L6Y] | 3.4 |
| AQVLMQGQILELPWKEETFLVLQS [L6Q] | 1.63 |
| AQVLMFGQILELPWKEETFLVLQS [L6F] | 2.61 |
| AQVLMAGQILELPWKEETFLVLQS [L6A] | 1.48 |
| AQVLMWGQILELPWKEETFLVLQS [L6W] | 2.46 |

| Variant | protein stability index |
| --- | --- |
| AQVLMEGQILELPWKEETFLVLQS [L6E] | 1.44 |
| AQVLMCGQILELPWKEETFLVLQS [L6C] | 3.67 |
| AQVLMPGQILELPWKEETFLVLQS [L6P] | 1.53 |
| AQVLMDGQILELPWKEETFLVLQS [L6D] | 2.3 |
| AQVLMRGQILELPWKEETFLVLQS [L6R] | 1.13 |
| AQVLMGGQILELPWKEETFLVLQS [L6G] | 2.17 |
| AQVLMLGQILHLPWKEETFLVLQS [E11H] | 1.11 |
| AQVLMLGQILGLPWKEETFLVLQS [E11G] | 2.17 |
| AQVLMLGQILYLPWKEETFLVLQS [E11Y] | 3.17 |
| AQVLMLGQILVLPWKEETFLVLQS [E11V] | 3.41 |
| AQVLMLGQILILPWKEETFLVLQS [E11I] | 1.47 |
| AQVLMLGQILTLPWKEETFLVLQS [E11T] | 2.47 |
| AQVLMLGQILALPWKEETFLVLQS [E11A] | 4.02 |
| AQVLMLGQILDLPWKEETFLVLQS [E11D] | 3.64 |
| AQVLMLGQILMLPWKEETFLVLQS [E11M] | 5.04 |
| AQVLMLGQILKLPWKEETFLVLQS [E11K] | 2.65 |
| AQVLMLGQILPLPWKEETFLVLQS [E11P] | 3.01 |
| AQVLMLGQILRLPWKEETFLVLQS [E11R] | 2.01 |
| AQVLMLGQILFLPWKEETFLVLQS [E11F] | 3.3 |
| AQVLMLGQILCLPWKEETFLVLQS [E11C] | 5.4 |
| AQVLMLGQILLLPWKEETFLVLQS [E11L] | 1.81 |
| AQVLMLGQLLELPWKEETFLVLQS [I9L] | 3.3 |
| AQVLMLGQFLELPWKEETFLVLQS [I9F] | 3.22 |
| AQVLMLGQNLELPWKEETFLVLQS [I9N] | 1.7 |

| Variant | protein stability index |
| --- | --- |
| AQVLMLGQKLELPWKEETFLVLQS [I9K] | 1.6 |
| AQVLMLGQPLELPWKEETFLVLQS [I9P] | 2.75 |
| AQVLMLGQALELPWKEETFLVLQS [I9A] | 3.41 |
| AQVLMLGQTLELPWKEETFLVLQS [I9T] | 2.91 |
| AQVLMLGQMLELPWKEETFLVLQS [I9M] | 2.82 |
| AQVLMLGQDLELPWKEETFLVLQS [I9D] | 2.85 |
| AQVLMLGQHLELPWKEETFLVLQS [I9H] | 2.26 |
| AQVLMLGQRLELPWKEETFLVLQS [I9R] | 2.46 |
| AQVLMLGQQLELPWKEETFLVLQS [I9Q] | 1.68 |
| AQVLMLGQSLELPWKEETFLVLQS [I9S] | 2.09 |
| AQVLMLGQCLELPWKEETFLVLQS [I9C] | 2.36 |
| AQVLMLGQGLELPWKEETFLVLQS [I9G] | 1.73 |
| AQVLMLGQELELPWKEETFLVLQS [I9E] | 1.63 |
| AQVLMLIQILELPWKEETFLVLQS [G7I] | 3.43 |
| AQVLMLNQILELPWKEETFLVLQS [G7N] | 2.85 |
| AQVLMLFQILELPWKEETFLVLQS [G7F] | 2.22 |
| AQVLMLRQILELPWKEETFLVLQS [G7R] | 4.09 |
| AQVLMLSQILELPWKEETFLVLQS [G7S] | 2.32 |
| AQVLMLQQILELPWKEETFLVLQS [G7Q] | 2.19 |
| AQVLMLDQILELPWKEETFLVLQS [G7D] | 2.12 |
| AQVLMLWQILELPWKEETFLVLQS [G7W] | 3.13 |
| AQVLMLVQILELPWKEETFLVLQS [G7V] | 2.8 |
| AQVLMLPQILELPWKEETFLVLQS [G7P] | 2.51 |
| AQVLMLCQILELPWKEETFLVLQS [G7C] | 2.25 |

| Variant | protein stability index |
| --- | --- |
| AQVLMLEQILELPWKEETFLVLQS [G7E] | 3.09 |
| AQVLMLGHILELPWKEETFLVLQS [Q8H] | 2.57 |
| AQVLMLGLILELPWKEETFLVLQS [Q8L] | 3.68 |
| AQVLMLGGILELPWKEETFLVLQS [Q8G] | 4.12 |
| AQVLMLGTILELPWKEETFLVLQS [Q8T] | 2.34 |
| AQVLMLGWILELPWKEETFLVLQS [Q8W] | 2.25 |
| AQVLMLGRILELPWKEETFLVLQS [Q8R] | 2.63 |
| AQVLMLGVILELPWKEETFLVLQS [Q8V] | 3.43 |
| AQVLMLGEILELPWKEETFLVLQS [Q8E] | 1.35 |
| AQVLMLGSILELPWKEETFLVLQS [Q8S] | 2.42 |
| AQVLMLGIILELPWKEETFLVLQS [Q8I] | 4.26 |
| AQVLMLGAILELPWKEETFLVLQS [Q8A] | 2.48 |
| AQVLMLGMILELPWKEETFLVLQS [Q8M] | 2.39 |
| AQVLMLGFILELPWKEETFLVLQS [Q8F] | 2.51 |
| AQVLMLGYILELPWKEETFLVLQS [Q8Y] | 3.2 |
| AQVLMLGQILEEPWKEETFLVLQS [L12E] | 2.39 |
| AQVLMLGQILEDPWKEETFLVLQS [L12D] | 2.26 |
| AQVLMLGQILECPWKEETFLVLQS [L12C] | 3.49 |
| AQVLMLGQILEAPWKEETFLVLQS [L12A] | 3.6 |
| AQVLWLGQILELPWKEETFLVLQS [M5W] | 2.56 |
| AQVLYLGQILELPWKEETFLVLQS [M5Y] | 2.58 |
| AQVLVLGQILELPWKEETFLVLQS [M5V] | 3.14 |

Reference: the supplement of paper PMC10567573
